We go through 140 substances from the supplement of paper PMC12042874.

± gives the uncertainty stated by the source.

The nature of this data set: amyloid nucleation score (Sup35N fusion, yeast selection) (log enrichment); library NNK2; higher = more nucleation; inactive = no reads after selection. Summed up:
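The nucleation score is the DiMSum log enrichment of output over input reads, centred on the mode score of non-aggregating sequences. Only sequences with 100 or more input reads were scored, using Illumina sequencing of input and output plasmid inserts. Psi-negative yeast expressing Sup35N fused to peptides of 20 random codons were induced 24 hours with 100 μM copper sulfate and grown 7 days at 30°C on medium lacking adenine and uracil.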
Turning to LRFVVMVHLE, the amyloid nucleation score was -0.072 ± 0.79.

In turn, FVSIVPYRFL gave an amyloid nucleation score of -1.56 ± 0.48.

FLNSWQVGYLSCSSKLVACN: the amyloid nucleation score result was “inactive”.

Regarding MFLYTVTNARFYEWW, the amyloid nucleation score was found to be 0.102 ± 0.61.

Take WYMLLRESPGSCPVGDEQGR: the amyloid nucleation score turned out to be 0.923 ± 0.81.

EEWSYVDSEPSIRFSRIQDV showed an amyloid nucleation score of -0.516 ± 0.42.

Substance RRGSELINYRR gave an amyloid nucleation score of -0.341 ± 0.79.

VICRGITVARWSF yielded an amyloid nucleation score of 3.58 ± 0.065.

Substance TVSNPGMPNAI had an amyloid nucleation score of -0.557 ± 0.64.

NTLRMIPADFPSGRLEQTKV displayed an amyloid nucleation score of 0.552 ± 0.4.

Regarding VRIKCYVKPYFFQKFLHMIG, the amyloid nucleation score is -1.34 ± 0.53.

SSNVK had an amyloid nucleation score of 0.685 ± 0.4.

PRLNISLVMCNMFVGRGRFH displayed an amyloid nucleation score of 8.705 ± 0.039.

Turning to TFVKRIRYCFYLS, the amyloid nucleation score was 6.386 ± 0.023.

Turning to LYDVRGEMSNVGWFM, the amyloid nucleation score is -0.052 ± 0.54.

As for SSSVSRPRCFFRSWFYIHVR, the amyloid nucleation score is -1.21 ± 0.49.

Take NNSWQINIYNGVTRLIRVRA: the amyloid nucleation score is 4.7 ± 0.039.

For the substance PSCFQDYKWQMWQLTRAWNF, the amyloid nucleation score was -0.758 ± 0.55.

As for VLYWCPRDSKTWLSGRLLPM, the amyloid nucleation score was 1.33 ± 0.47.

Substance NNRWFRRGLGLSLDWTDCLS yielded an amyloid nucleation score of -0.492 ± 1.1.

LYNRLACL returned an amyloid nucleation score of 1.86 ± 0.084.

YIKFDGSTWKGVVFYYEMWE had an amyloid nucleation score of -1.12 ± 0.76.

For the substance VSQGRFKYERVVCVNFGKEL, the amyloid nucleation score came out at 0.201 ± 0.74.

In the case of WSWLRICIS, the amyloid nucleation score came out at 0.549 ± 0.32.

As to MGLSWLSLLLKCRCQWACKL, the amyloid nucleation score is 0.306 ± 0.65.

Consider LGTEAEWCVGLMCSVKRYQM, for which the amyloid nucleation score came out at 4.58 ± 0.068.

With RLFQE, the amyloid nucleation score was -0.153 ± 1.1.

On to QEVSIKSFLRKYLLCYTMML, for which the amyloid nucleation score was -1.05 ± 0.44.

Substance GTRNVLIHAK displayed an amyloid nucleation score of -1.26 ± 1.1.

Turning to KVAFLLRVGAYFDSWWHRRV, the amyloid nucleation score came out at 0.166 ± 0.39.

RPKLGSSVVRHVMFIGWGCG: the amyloid nucleation score is 0.797 ± 0.43.

With MSMFVGTYNSFFRQSLFSAF, the amyloid nucleation score was -1.7 ± 0.78.

Turning to GGFSLMIFVCAGSHLG, the amyloid nucleation score was 5.26 ± 0.07.

IRRTDREQ returned an amyloid nucleation score of 0.053 ± 0.24.

LVVCEMY: the amyloid nucleation score was 0.348 ± 0.25.

In the case of FCKYANSGGCNHSMSDAV, the amyloid nucleation score was -0.761 ± 1.1.

Take GCCPAALFEFT: the amyloid nucleation score was -1.07 ± 0.78.

FCVISKGRHVSMRTTSGFLE displayed an amyloid nucleation score of -0.834 ± 0.54.

In turn, TGFMVTFASST gave an amyloid nucleation score of 0.02 ± 0.22.

Turning to WRYYAGWYESWSTAGQTCTF, the amyloid nucleation score is -0.487 ± 1.1.

On to NDSRHTVIGYVMFKVYMYLK, for which the amyloid nucleation score result was “inactive”.

With KVVIYGCSS, the amyloid nucleation score is -0.183 ± 0.65.

The substance SNIGCRKIWTSLRSMDLIIG yielded an amyloid nucleation score of -0.006 ± 0.65.

Turning to TFWLIRTSHRGYRYEKVCTY, the amyloid nucleation score is -0.017 ± 0.49.

Consider GDLRYQSPSLCFCFMSFGDQ, for which the amyloid nucleation score worked out at 5.971 ± 0.024.

VFSSYYRSKEFTCIVLLGL: the amyloid nucleation score was -0.026 ± 0.33.

CDILPDLPGRFALVRKASHN displayed an amyloid nucleation score of 1.11 ± 0.45.

On to SFVRPGGWPNK, for which the amyloid nucleation score is -0.264 ± 0.76.

With DRRRK, the amyloid nucleation score stood at 1.43 ± 0.23.

In turn, GADGISCFGISDKLGYDKFL displayed an amyloid nucleation score of -0.1 ± 1.

As for QCYIVCFICSRYTNQVKLLY, the amyloid nucleation score was 1.38 ± 0.14.

The substance GGILH gave an amyloid nucleation score of -0.254 ± 1.

As to YLLLNYQACTMLDWNWVWVW, the amyloid nucleation score was 5.31 ± 0.071.

With HFKSDSSSSEMTRLVEPGGV, the amyloid nucleation score was -0.125 ± 0.63.

With NLQLVGVMNPDPCESWN, the amyloid nucleation score was 0.222 ± 0.31.

VIDTCGDVNRSRGQVLSGGV showed an amyloid nucleation score of 0.293 ± 0.3.

Turning to RFRFYYCLDCSHL, the amyloid nucleation score entry was “inactive”.

LLMFRVRVDELWHGAARHMG: the amyloid nucleation score was determined as 1.64 ± 0.38.

On to INQFIFGTKRMSKNYVSMVR, for which the amyloid nucleation score result was “inactive”.

MHDYFLVQ: the amyloid nucleation score was -0.487 ± 0.42.

Consider DNILICMYGDVYMGCYCQAI, for which the amyloid nucleation score came to 8.632 ± 0.05.

AIAAHFGLMPMCYLCTG: the amyloid nucleation score stood at 7.25 ± 0.079.

Consider HVAWGHFLLIHIFHVNYGYL, for which the amyloid nucleation score was -0.627 ± 1.1.

STYSPSSPHMLSYPFWARTP had an amyloid nucleation score of -0.269 ± 0.76.

VSFKDTTGECGDLSYRKNAR showed an amyloid nucleation score of 0.646 ± 0.38.

Regarding YARTKDYVLVCLQGICAGVN, the amyloid nucleation score was -0.14 ± 1.

The substance FRSGRWRNGALSWHALATL yielded an amyloid nucleation score of 0.658 ± 0.52.

SAWRVCYRTNENCAPFMYVL displayed an amyloid nucleation score of -1.22 ± 0.75.

IRMAISLFNFGFSNMFMLKE yielded an amyloid nucleation score of -1.94 ± 1.1.

On to ESLGEVKGYTSDPMVLVCFE, for which the amyloid nucleation score was -0.167 ± 0.23.

Substance YKVNWG registered an amyloid nucleation score of 0.854 ± 0.47.

In the case of GGLELLLGKMNVNVAMLKSF, the amyloid nucleation score amounted to 1.09 ± 0.17.

As to GGLFRFYS, the amyloid nucleation score result is “inactive”.

Consider CVLMTALNLRKRSVGMPFCW, for which the amyloid nucleation score came out at 4.67 ± 0.077.

EEMMSRYSLTVKML yielded an amyloid nucleation score of 0.391 ± 0.34.

Substance KCDYPGFWMPGQSYKDSILD displayed an amyloid nucleation score of -1.61 ± 1.1.

Substance HPFMFKVCSTYFLNYLASCQ had an amyloid nucleation score of 6.78 ± 0.074.

Regarding FSSSEHVFQVDGGFDKNRPI, the amyloid nucleation score was -1.47 ± 0.78.

LSAVVTSFKVTN registered an amyloid nucleation score of 0.523 ± 0.64.

With HYMSAHGRRRLKPQVFYT, the amyloid nucleation score entry is “inactive”.

Take EGFEFCWINNMDWSMPWVTN: the amyloid nucleation score was 5.08 ± 0.062.

Substance GDTYMGVYANLVMLALYGPG had an amyloid nucleation score of 5.2 ± 0.088.

The substance VKWACNMLSI came in with an amyloid nucleation score of -0.676 ± 0.48.

In turn, ALGVPLYMIEGIGKCLLSLK gave an amyloid nucleation score of 1.24 ± 0.43.

On to ILYGWGRMMCRPLPQGYWMV, for which the amyloid nucleation score came out at 0.449 ± 0.28.

For SGYCQDCSSGPFESDGINIS, the amyloid nucleation score was -0.321 ± 1.

With VCSGGLQDSRGYCCYPVGRM, the amyloid nucleation score turned out to be 1.31 ± 0.32.

In turn, MYPIWNQCSSWNEVVLNGCR gave an amyloid nucleation score of 0.159 ± 0.4.

The substance NSSEINHSKG yielded an amyloid nucleation score of -0.788 ± 1.1.

Turning to FVWMCQLS, the amyloid nucleation score turned out to be 6.297 ± 0.048.

KCIIRTNKFFAFHVCKLTVN: the amyloid nucleation score came to 0.498 ± 0.3.

As for ICLDLCNMKLEKGLS, the amyloid nucleation score was -1.55 ± 1.

TSRYTHNCMPIDCMIMHMGI gave an amyloid nucleation score of 1.77 ± 0.14.

Regarding VGSFIFLLRCWLSCAIAGVQ, the amyloid nucleation score is -0.323 ± 0.65.

As for LGPEYTWQI, the amyloid nucleation score turned out to be 0.548 ± 0.42.

As for YSLYEYFKSHLRKACVMPGW, the amyloid nucleation score entry was “inactive”.

The substance STSSNGSEYHCLSI showed an amyloid nucleation score of 1.05 ± 0.44.

As to RSFRECQDCGMQMFISRRLV, the amyloid nucleation score was determined as 0.15 ± 0.18.

Regarding KLAPLNKGSFA, the amyloid nucleation score was -0.211 ± 0.63.

Substance SINSSV registered an amyloid nucleation score of -0.166 ± 1.1.

Turning to SFMDQHFS, the amyloid nucleation score is -0.419 ± 0.63.

Substance SVCSKSGNFYGVVNMGL gave an amyloid nucleation score of -0.161 ± 0.79.

Take VRKGCLTRACWRGCECMQGG: the amyloid nucleation score amounted to 2.03 ± 0.12.

IIACLTVNYCTGRCATLMFP: the amyloid nucleation score was 6.365 ± 0.036.

Regarding KVARGVCYCRFSL, the amyloid nucleation score result is “inactive”.

In the case of KLTPYRISKMPSWLSA, the amyloid nucleation score entry was “inactive”.

MFSPQLSALMILVSYMHDGW returned an amyloid nucleation score of 2.04 ± 0.087.

Regarding LFGYGQEDGQWCGDEFETVK, the amyloid nucleation score is 0.769 ± 0.26.

NAEFIPGYMISVWTSIATIT yielded an amyloid nucleation score of 0.359 ± 0.42.

CEYYVHLRY gave an amyloid nucleation score of -0.702 ± 0.49.

DYVSGYRVGQFVMLLGRLRN: the amyloid nucleation score was -0.205 ± 0.55.

The substance VKPWFS registered an amyloid nucleation score of -0.145 ± 1.1.

Substance SRRRLVPSLLTRIISGVRGR registered an amyloid nucleation score of -0.877 ± 0.55.

Consider CIFILTD, for which the amyloid nucleation score was -1.67 ± 0.45.

In turn, RLLLEDASIVGLIITYYLMF registered an amyloid nucleation score of 0.085 ± 0.8.

The substance CSIGLRCGNVMLPTEWVSNC returned an amyloid nucleation score of -0.763 ± 0.32.

Take DIVMCFLGRHHQSTEAGLSM: the amyloid nucleation score was determined as 4.49 ± 0.056.

RSTISYDSSAQYCGGWLGLW: the amyloid nucleation score was -0.717 ± 1.

In turn, DRQTATSEMVSNRLISFRLV gave an amyloid nucleation score of 0.145 ± 0.19.

In turn, NLSDLLFLQSTSEGLSLFSI registered an amyloid nucleation score of -0.621 ± 0.64.

As to LYERFIVENDCFQNHMKHEA, the amyloid nucleation score entry was “inactive”.

Consider IKYSVVNRHRVGLSVTAKW, for which the amyloid nucleation score was -0.205 ± 0.37.

In turn, VSLYLYPVGMGMSE returned an amyloid nucleation score of 1 ± 0.68.

Consider LLCCIIIIGMVLGLMTDPEW, for which the amyloid nucleation score was -0.781 ± 0.76.

FYIGILGDLWWRRR returned an amyloid nucleation score of 1.15 ± 0.57.

FASVLLCSIRRALGRVVRPL displayed an amyloid nucleation score of 0.144 ± 0.55.

The substance VRFTAWICVYRYKEGWWRSL yielded an amyloid nucleation score of -0.417 ± 0.24.

Substance IAGYGVHTLVQCVV had an amyloid nucleation score of 0.082 ± 1.

With ILWCFRSVMA, the amyloid nucleation score was -0.327 ± 0.28.

GLGSRWRCA showed an amyloid nucleation score of 2.01 ± 0.24.

In turn, RAWSIAWYAYPFLIREFECN came in with an amyloid nucleation score of 3.35 ± 0.079.

In the case of FVPSSLEGPLAGCYSAFIFE, the amyloid nucleation score result was “inactive”.

In turn, TYEMSVVGVEWWVTGQLTIC gave an amyloid nucleation score of 1.68 ± 0.38.

In turn, YTKSQGAFT gave an amyloid nucleation score of -0.135 ± 0.65.

As for KLLFLLVVVLADQMSCLGTS, the amyloid nucleation score stood at 1.1 ± 0.36.

Turning to CEEHDFMTSFICIAWAWKWL, the amyloid nucleation score is -0.66 ± 0.48.

As for ENFGVVMRWGYIRLLLQANW, the amyloid nucleation score entry is “inactive”.

Turning to ICLHHDYGSGWWIIQSAWQI, the amyloid nucleation score came to 2.95 ± 0.076.

As for AFCWTLWQYLGFS, the amyloid nucleation score was 1.35 ± 0.16.

In turn, FICPMYESSRIVV returned an amyloid nucleation score of 0.335 ± 0.64.
